Key:
[1] = target: T1, fluorogenic peptide substrate decanoyl-LTPTAY(NO2)A-ASK(abz)DD
T1 chain: LTPTAYAASKDD

[2] = target: T2, fluorogenic peptide substrate decanoyl-LSSPAY(NO2)A-ADK(abz)PD
T2 chain: LSSPAYAADKPD

B1: Full length His-tagged S. aureus SPase (protein)
chain: MKKELLEWIISIAVAFVILFIVGKFIVTSYTIKGESMDPTLKDGERVAVNIIGYKTGGLEKGNVVVFHANKNDDYVKRVIGVPGDKVEYKNDTLYVNGKKQDEPYLNYNLKHKQGDYITGTFQVKDLPNANPKSNVIPKGKYLVLGDNREVSKDSRAFGLIDEDQIVGKVSFRFWPFSEFKHNFNPENTKN
Which results are given for B1?
second order rate constant (Kcat/Km) of substrate cleavage [1]: 10^5 M^-1 s^-1; second order rate constant (Kcat/Km) of substrate cleavage [2]: 10^5 M^-1 s^-1

From US20140249073A1
